{
  "source": "paper PMC10397247",
  "assay_in_all_cases": "two-hybrid library CCNG1;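 note: natural log of median RNA to DNA barcode read ratio; higher means stronger binding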",
  "key": {"[1]": {"target": "T1, 4H855-bN", "T1 chain": "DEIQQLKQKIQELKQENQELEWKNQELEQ"}, "[2]": {"target": "T2, 4H2586-bN", "T2 chain": "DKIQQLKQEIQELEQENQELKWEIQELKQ"}, "[3]": {"target": "T3, 4H918-bN", "T3 chain": "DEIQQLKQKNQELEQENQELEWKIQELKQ"}, "[4]": {"target": "T4, 4H2702-bN", "T4 chain": "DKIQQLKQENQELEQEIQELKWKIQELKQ"}, "[5]": {"target": "T5, 4H797-bN", "T5 chain": "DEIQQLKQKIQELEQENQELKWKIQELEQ"}, "[6]": {"target": "T6, 4H2673-bN", "T6 chain": "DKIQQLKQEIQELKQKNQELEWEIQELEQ"}, "[7]": {"target": "T7, 4H780-bN", "T7 chain": "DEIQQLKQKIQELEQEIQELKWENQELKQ"}, "[8]": {"target": "T8, 4H575-bN", "T8 chain": "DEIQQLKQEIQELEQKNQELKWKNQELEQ"}, "[9]": {"target": "T9, 4H1831-bN", "T9 chain": "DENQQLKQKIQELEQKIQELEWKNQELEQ"}, "[10]": {"target": "T10, 4H170-bN", "T10 chain": "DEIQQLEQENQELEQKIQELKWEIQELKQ"}, "[11]": {"target": "T11, 4H4073-bN", "T11 chain": "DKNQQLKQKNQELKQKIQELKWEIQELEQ"}, "[12]": {"target": "T12, 4H3926-bN", "T12 chain": "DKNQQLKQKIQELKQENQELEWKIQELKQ"}, "[13]": {"target": "T13, 4H457-bN", "T13 chain": "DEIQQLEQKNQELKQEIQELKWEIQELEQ"}, "[14]": {"target": "T14, 4H3010-bN", "T14 chain": "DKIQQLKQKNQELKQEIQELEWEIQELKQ"}, "[15]": {"target": "T15, 4H754-bN", "T15 chain": "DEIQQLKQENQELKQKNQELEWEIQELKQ"}, "[16]": {"target": "T16, 4H2627-bN", "T16 chain": "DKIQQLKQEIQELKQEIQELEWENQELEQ"}, "[17]": {"target": "T17, 4H118-bN", "T17 chain": "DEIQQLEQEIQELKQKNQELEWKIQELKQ"}, "[18]": {"target": "T18, 4H3427-bN", "T18 chain": "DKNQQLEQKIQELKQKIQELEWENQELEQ"}, "[19]": {"target": "T19, 4H1158-bN", "T19 chain": "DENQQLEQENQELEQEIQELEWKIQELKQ"}, "[20]": {"target": "T20, 4H346-bN", "T20 chain": "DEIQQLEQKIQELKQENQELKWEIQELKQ"}, "[21]": {"target": "T21, 4H3112-bN", "T21 chain": "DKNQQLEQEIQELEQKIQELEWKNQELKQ"}, "[22]": {"target": "T22, 4H953-bN", "T22 chain": "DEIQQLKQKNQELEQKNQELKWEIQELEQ"}, "[23]": {"target": "T23, 4H683-bN", "T23 chain": "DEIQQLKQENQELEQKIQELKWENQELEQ"}, "[24]": {"target": "T24, 4H968-bN", "T24 chain": "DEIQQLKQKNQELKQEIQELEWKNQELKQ"}, "[25]": {"target": "T25, P6mS", "T25 chain": "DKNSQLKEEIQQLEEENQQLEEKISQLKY"}, "[26]": {"target": "T26, P3mS", "T26 chain": "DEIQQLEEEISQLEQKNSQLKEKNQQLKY"}, "[27]": {"target": "T27, P11mS", "T27 chain": "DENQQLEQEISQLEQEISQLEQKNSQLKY"}, "[28]": {"target": "T28, P4mS", "T28 chain": "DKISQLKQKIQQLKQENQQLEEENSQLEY"}, "[29]": {"target": "T29, P12mS", "T29 chain": "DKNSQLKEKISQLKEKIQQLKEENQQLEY"}, "[30]": {"target": "T30, P7mS", "T30 chain": "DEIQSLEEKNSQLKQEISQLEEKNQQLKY"}, "[31]": {"target": "T31, P8mS", "T31 chain": "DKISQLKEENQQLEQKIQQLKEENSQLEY"}, "[32]": {"target": "T32, P5mS", "T32 chain": "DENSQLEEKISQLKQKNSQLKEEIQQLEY"}, "[33]": {"target": "T33, P9mS", "T33 chain": "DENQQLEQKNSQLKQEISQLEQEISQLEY"}, "[34]": {"target": "T34, 4H3961-bA", "T34 chain": "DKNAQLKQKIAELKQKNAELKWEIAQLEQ"}, "[35]": {"target": "T35, 4H363-bA", "T35 chain": "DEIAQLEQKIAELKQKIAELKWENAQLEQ"}, "[36]": {"target": "T36, 4H470-bA", "T36 chain": "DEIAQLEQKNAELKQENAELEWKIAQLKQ"}, "[37]": {"target": "T37, 4H344-bA", "T37 chain": "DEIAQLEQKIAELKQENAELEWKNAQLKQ"}, "[38]": {"target": "T38, 4H2568-bA", "T38 chain": "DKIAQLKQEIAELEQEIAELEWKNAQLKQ"}, "[39]": {"target": "T39, 4H2619-bA", "T39 chain": "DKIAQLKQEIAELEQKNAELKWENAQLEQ"}, "[40]": {"target": "T40, 4H3907-bA", "T40 chain": "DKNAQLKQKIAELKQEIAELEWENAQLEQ"}, "[41]": {"target": "T41, 4H2745-bA", "T41 chain": "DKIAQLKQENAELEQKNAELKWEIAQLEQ"}},
  "data": [
    {"binder": "DENQQLEQENQELEQEIQELEWKIQELKQ", "note": "[4H1158-bN]", "values": [
      {"measurement": "interaction score", "setting": "[1]", "result": 0.326},
      {"measurement": "interaction score", "setting": "[2]", "result": 0.693},
      {"measurement": "interaction score", "setting": "[3]", "result": -1.72},
      {"measurement": "interaction score", "setting": "[4]", "result": -0.191},
      {"measurement": "interaction score", "setting": "[5]", "result": -0.804},
      {"measurement": "interaction score", "setting": "[6]", "result": -1.07},
      {"measurement": "interaction score", "setting": "[7]", "result": -0.000435},
      {"measurement": "interaction score", "setting": "[8]", "result": -0.306},
      {"measurement": "interaction score", "setting": "[9]", "result": -0.553},
      {"measurement": "interaction score", "setting": "[10]", "result": -0.262},
      {"measurement": "interaction score", "setting": "[11]", "result": 2.1},
      {"measurement": "interaction score", "setting": "[12]", "result": -1.19},
      {"measurement": "interaction score", "setting": "[13]", "result": 0.107},
      {"measurement": "interaction score", "setting": "[14]", "result": 1.32},
      {"measurement": "interaction score", "setting": "[15]", "result": 0.195},
      {"measurement": "interaction score", "setting": "[16]", "result": -1.89},
      {"measurement": "interaction score", "setting": "[17]", "result": 0.579},
      {"measurement": "interaction score", "setting": "[18]", "result": -0.273},
      {"measurement": "interaction score", "setting": "[19]", "result": 0.0264},
      {"measurement": "interaction score", "setting": "[20]", "result": -0.45},
      {"measurement": "interaction score", "setting": "[21]", "result": 0.501},
      {"measurement": "interaction score", "setting": "[22]", "result": 0.0849},
      {"measurement": "interaction score", "setting": "[23]", "result": 0.827},
      {"measurement": "interaction score", "setting": "[24]", "result": -1.23}
    ]},
    {"binder": "DENQQLEQEISQLEQEISQLEQKNSQLKY", "note": "[P11mS]", "values": [
      {"measurement": "interaction score", "setting": "[25]", "result": -0.739},
      {"measurement": "interaction score", "setting": "[26]", "result": -0.646},
      {"measurement": "interaction score", "setting": "[27]", "result": -0.707},
      {"measurement": "interaction score", "setting": "[28]", "result": 0.774},
      {"measurement": "interaction score", "setting": "[29]", "result": 1.52},
      {"measurement": "interaction score", "setting": "[30]", "result": -0.84},
      {"measurement": "interaction score", "setting": "[31]", "result": -0.0076},
      {"measurement": "interaction score", "setting": "[32]", "result": 0.261},
      {"measurement": "interaction score", "setting": "[33]", "result": -0.542}
    ]},
    {"binder": "DKIAQLKQEIAELEQEIAELEWKNAQLKQ", "note": "[4H2568-bA]", "values": [
      {"measurement": "interaction score", "setting": "[34]", "result": 2.32},
      {"measurement": "interaction score", "setting": "[35]", "result": 0.53},
      {"measurement": "interaction score", "setting": "[36]", "result": -0.973},
      {"measurement": "interaction score", "setting": "[37]", "result": 0.491},
      {"measurement": "interaction score", "setting": "[38]", "result": 1.94},
      {"measurement": "interaction score", "setting": "[39]", "result": 0.254},
      {"measurement": "interaction score", "setting": "[40]", "result": 1.89},
      {"measurement": "interaction score", "setting": "[41]", "result": -0.347}
    ]}
  ]
}
